Assay: stability of the structural color on a baked biscuit at high temperature
Type: physicochemical
Settings: 130-150° C.
Description: At block 902, a predetermined solution mixed with the submicron particles prepared from the predetermined material and the cuttlefish juice submicron particles is applied to a target object. The target object, for example, is food such as, but not limited to, various pastries and candies. For example, a mixture solution of the TiO2 submicron particles and cuttlefish juice submicron particles are added dropwise onto a surface of a biscuit.
At block 904, the target object is baked or frozen to evaporate or sublimate the predetermined solution such that the submicron particles prepared from the predetermined material and the cuttlefish juice submicron particles can be self-assembled into the amorphous photonic crystal structure on the target object, where the baking temperature is less than or equal to 250° C.
For example, when baked, the biscuit having drops of the mixture solution added onto the surface is dried with the increasing baking temperature. In the case, the submicron particles prepared from the predetermined material and the cuttlefish juice submicron particles are self-assembled to generate the structural color of the amorphous photonic crystal structure. The structural color is stable in the baked state at a high temperature (130-150° C.), and the legacy phycocyanin will fade at such high temperature. […]

Substance: phycocyanin
- color stability in the baked state: will fade

From patent US20220403174A1, “METHOD FOR PREPARING COLORANT HAVING TARGET COLOR AND COLORANT” (Fudan University, priority 2021, published 2022)
